“And” between values parts separate entries of the source, which are not always exact repeats. Identical values can stand only once.
Biological target: T1, recombinant human Siglec-8 extracellular domain (ECD) (human, UniProt Q9NYZ4 17-363)
T1 construct: extracellular domain; also called Siglec-8 ECD; full Siglec-8 ECD
Assay: ELISA, coated Siglec-8 ECD
Experimental: Binding of recombinant human Siglec-8 extracellular domain (ECD) by chimeric 2E2 and chimeric 2C4 IgG1K antibodies was measured by ELISA. […] Three-fold serial dilutions of a chimeric antibody (ch2E2 or ch2C4) or mouse antibody (m2E2 or m2C4) in 0.2% BSA/TBS (starting concentration was 5000 ng/mL) was added to each coated well. The plate was incubated for 2 hours at room temperature and the wells were subsequently washed before addition of goat-anti-human Fc peroxidase conjugate (1:10000 dilution) or anti-mouse Fc peroxidase conjugate (1:30000 dilution) diluted in 0.2% BSA/TBS solution. The plate was incubated for 45 minutes at room temperature, followed by washing and addition of 30 μL K-blue HRP substrate (SkyBio Ltd) to each well. After incubation at room temperature for 15 minutes, the reaction was stopped by adding 10 μL of Red Stop solution (SkyBio Ltd) to each well. The optical density or the experimental samples was read at 650 nm using the ELISA reader PHERAStar FS (BMG Labtech).
The fully humanized antibody heavy and light chains were combined and compared with the chimeric antibody to determine if replacing the 4 Å and canonical framework residues and interface residues was sufficient to successfully humanize 2E2. Expi293 cells were co-transfected with combinations of different humanized light chain vectors in association with different humanized heavy chain vectors. Siglec-8 antigen was used to measure antibody binding by ELISA as described in Example 1.

T1 sequence (Q9NYZ4 17-363): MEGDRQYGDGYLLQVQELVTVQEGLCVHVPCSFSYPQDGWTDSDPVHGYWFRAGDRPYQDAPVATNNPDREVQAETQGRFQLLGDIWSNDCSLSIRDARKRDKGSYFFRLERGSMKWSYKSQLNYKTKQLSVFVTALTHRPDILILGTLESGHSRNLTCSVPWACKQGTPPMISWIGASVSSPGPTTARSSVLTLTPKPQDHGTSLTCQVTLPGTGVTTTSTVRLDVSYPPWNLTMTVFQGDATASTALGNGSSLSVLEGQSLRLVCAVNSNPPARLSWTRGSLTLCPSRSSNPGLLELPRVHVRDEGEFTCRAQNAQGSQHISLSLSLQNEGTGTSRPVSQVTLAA

Binder	EC50
HEKC (antibody, human IgG1, V domains shown, human IgG1/kappa) VH: EVQLVESGGGLVQPGGSLRLSCAASGFSLTIYGAHWVRQAPGKGLEWVGVIWAGGSTNYNSALMSRFTISKDNSKNTVYLQMNSLRAEDTAVYYCARDGSSPYYYSMEYWGQGTTVTVSS VL: EIILTQSPATLSLSPGERATLSCSATSSVSYMHWFQQKPGQAPRLLIYSTSNLASGIPARFSGSGSGTDFTLTISSLEPEDFAVYYCQQRSSYPFTFGPGTKLDIK	0.069 nM and 0.065 nM
HGKC (antibody, human IgG1, V domains shown, human IgG1/kappa) VH: EVQLVESGGGLVQPGGSLRLSCAASGFSLTIYGAHWVRQAPGKGLEWVSVIWAGGSTNYNSALMSRFSISKDNSKNTVYLQMNSLRAEDTAVYYCARDGSSPYYYSMEYWGQGTTVTVSS VL: EIILTQSPATLSLSPGERATLSCSATSSVSYMHWFQQKPGQAPRLLIYSTSNLASGIPARFSGSGSGTDFTLTISSLEPEDFAVYYCQQRSSYPFTFGPGTKLDIK	0.065 nM
HGKA (antibody, human IgG1, V domains shown, human IgG1/kappa) VH: EVQLVESGGGLVQPGGSLRLSCAASGFSLTIYGAHWVRQAPGKGLEWVSVIWAGGSTNYNSALMSRFSISKDNSKNTVYLQMNSLRAEDTAVYYCARDGSSPYYYSMEYWGQGTTVTVSS VL: EIVLTQSPATLSLSPGERATLSCSATSSVSYMHWFQQKPGQAPRLLIYSTSNLASGIPARFSGSGSGTDFTLTISSLEPEDFAVYYCQQRSSYPFTFGPGTKLDIK	0.061 nM
HFKA (antibody, human IgG1, V domains shown, human IgG1/kappa) VH: EVQLVESGGGLVQPGGSLRLSCAASGFSLTIYGAHWVRQAPGKGLEWVSVIWAGGSTNYNSALMSRLTISKDNSKNTVYLQMNSLRAEDTAVYYCARDGSSPYYYSMEYWGQGTTVTVSS VL: EIVLTQSPATLSLSPGERATLSCSATSSVSYMHWFQQKPGQAPRLLIYSTSNLASGIPARFSGSGSGTDFTLTISSLEPEDFAVYYCQQRSSYPFTFGPGTKLDIK	0.106 nM
HGKD (antibody, human IgG1, V domains shown, human IgG1/kappa) VH: EVQLVESGGGLVQPGGSLRLSCAASGFSLTIYGAHWVRQAPGKGLEWVSVIWAGGSTNYNSALMSRFSISKDNSKNTVYLQMNSLRAEDTAVYYCARDGSSPYYYSMEYWGQGTTVTVSS VL: EIVLTQSPATLSLSPGERATLSCSATSSVSYMHWFQQKPGQAPRLWIYSTSNLASGIPARFSGSGSGTDFTLTISSLEPEDFAVYYCQQRSSYPFTFGPGTKLDIK	0.047 nM
HEKG (antibody, human IgG1, V domains shown, human IgG1/kappa) VH: EVQLVESGGGLVQPGGSLRLSCAASGFSLTIYGAHWVRQAPGKGLEWVGVIWAGGSTNYNSALMSRFTISKDNSKNTVYLQMNSLRAEDTAVYYCARDGSSPYYYSMEYWGQGTTVTVSS VL: EIVLTQSPATLSLSPGERATLSCSATSSVSYMHWYQQKPGQAPRLLIYSTSNLASGIPARFSGSGSGTDFTLTISSLEPEDFAVYYCQQRSSYPFTFGPGTKLDIK	0.302 nM
HFKFmut (antibody, human IgG1, V domains shown, human IgG1/kappa) VH: EVQLVESGGGLVQPGGSLRLSCAASGFSLTIYGAHWVRQAPGKGLEWVSVIWAGGSTNYNSALMSRLTISKDNSKNTVYLQMNSLRAEDTAVYYCARDGSSPYYYSMEYWGQGTTVTVSS VL: EIVLTQSPATLSLSPGERATLSCSATSSVSYMHWFQQKPGQAPRLLIYSTSNLASGIPARFSGSGSGTDYTLTISSLEPEDFAVYYCQQRSSYPYTFGPGTKLDIK	0.057 nM
HFKD (antibody, human IgG1, V domains shown, human IgG1/kappa) VH: EVQLVESGGGLVQPGGSLRLSCAASGFSLTIYGAHWVRQAPGKGLEWVSVIWAGGSTNYNSALMSRLTISKDNSKNTVYLQMNSLRAEDTAVYYCARDGSSPYYYSMEYWGQGTTVTVSS VL: EIVLTQSPATLSLSPGERATLSCSATSSVSYMHWFQQKPGQAPRLWIYSTSNLASGIPARFSGSGSGTDFTLTISSLEPEDFAVYYCQQRSSYPFTFGPGTKLDIK	0.058 nM
HFKB (antibody, human IgG1, V domains shown, human IgG1/kappa) VH: EVQLVESGGGLVQPGGSLRLSCAASGFSLTIYGAHWVRQAPGKGLEWVSVIWAGGSTNYNSALMSRLTISKDNSKNTVYLQMNSLRAEDTAVYYCARDGSSPYYYSMEYWGQGTTVTVSS VL: EIILTQSPATLSLSPGERATLSCSATSSVSYMHWFQQKPGQAPRLWIYSTSNLASGVPARFSGSGSGTDYTLTISSLEPEDFAVYYCQQRSSYPFTFGPGTKLDIK	0.099 nM
HFKF (antibody, human IgG1, V domains shown, human IgG1/kappa) VH: EVQLVESGGGLVQPGGSLRLSCAASGFSLTIYGAHWVRQAPGKGLEWVSVIWAGGSTNYNSALMSRLTISKDNSKNTVYLQMNSLRAEDTAVYYCARDGSSPYYYSMEYWGQGTTVTVSS VL: EIVLTQSPATLSLSPGERATLSCSATSSVSYMHWFQQKPGQAPRLLIYSTSNLASGIPARFSGSGSGTDYTLTISSLEPEDFAVYYCQQRSSYPFTFGPGTKLDIK	0.118 nM

Results, then the binder that gave them:

EC50	Binder
0.059 nM and 0.07 nM	HEKD (antibody, human IgG1, V domains shown, human IgG1/kappa) VH: EVQLVESGGGLVQPGGSLRLSCAASGFSLTIYGAHWVRQAPGKGLEWVGVIWAGGSTNYNSALMSRFTISKDNSKNTVYLQMNSLRAEDTAVYYCARDGSSPYYYSMEYWGQGTTVTVSS VL: EIVLTQSPATLSLSPGERATLSCSATSSVSYMHWFQQKPGQAPRLWIYSTSNLASGIPARFSGSGSGTDFTLTISSLEPEDFAVYYCQQRSSYPFTFGPGTKLDIK
0.134 nM	HGKB (antibody, human IgG1, V domains shown, human IgG1/kappa) VH: EVQLVESGGGLVQPGGSLRLSCAASGFSLTIYGAHWVRQAPGKGLEWVSVIWAGGSTNYNSALMSRFSISKDNSKNTVYLQMNSLRAEDTAVYYCARDGSSPYYYSMEYWGQGTTVTVSS VL: EIILTQSPATLSLSPGERATLSCSATSSVSYMHWFQQKPGQAPRLWIYSTSNLASGVPARFSGSGSGTDYTLTISSLEPEDFAVYYCQQRSSYPFTFGPGTKLDIK
0.116 nM	HGKE (antibody, human IgG1, V domains shown, human IgG1/kappa) VH: EVQLVESGGGLVQPGGSLRLSCAASGFSLTIYGAHWVRQAPGKGLEWVSVIWAGGSTNYNSALMSRFSISKDNSKNTVYLQMNSLRAEDTAVYYCARDGSSPYYYSMEYWGQGTTVTVSS VL: EIVLTQSPATLSLSPGERATLSCSATSSVSYMHWFQQKPGQAPRLLIYSTSNLASGVPARFSGSGSGTDFTLTISSLEPEDFAVYYCQQRSSYPFTFGPGTKLDIK
0.355 nM	HFKG (antibody, human IgG1, V domains shown, human IgG1/kappa) VH: EVQLVESGGGLVQPGGSLRLSCAASGFSLTIYGAHWVRQAPGKGLEWVSVIWAGGSTNYNSALMSRLTISKDNSKNTVYLQMNSLRAEDTAVYYCARDGSSPYYYSMEYWGQGTTVTVSS VL: EIVLTQSPATLSLSPGERATLSCSATSSVSYMHWYQQKPGQAPRLLIYSTSNLASGIPARFSGSGSGTDFTLTISSLEPEDFAVYYCQQRSSYPFTFGPGTKLDIK
0.063 nM	HFKC (antibody, human IgG1, V domains shown, human IgG1/kappa) VH: EVQLVESGGGLVQPGGSLRLSCAASGFSLTIYGAHWVRQAPGKGLEWVSVIWAGGSTNYNSALMSRLTISKDNSKNTVYLQMNSLRAEDTAVYYCARDGSSPYYYSMEYWGQGTTVTVSS VL: EIILTQSPATLSLSPGERATLSCSATSSVSYMHWFQQKPGQAPRLLIYSTSNLASGIPARFSGSGSGTDFTLTISSLEPEDFAVYYCQQRSSYPFTFGPGTKLDIK
0.104 nM	HFKE (antibody, human IgG1, V domains shown, human IgG1/kappa) VH: EVQLVESGGGLVQPGGSLRLSCAASGFSLTIYGAHWVRQAPGKGLEWVSVIWAGGSTNYNSALMSRLTISKDNSKNTVYLQMNSLRAEDTAVYYCARDGSSPYYYSMEYWGQGTTVTVSS VL: EIVLTQSPATLSLSPGERATLSCSATSSVSYMHWFQQKPGQAPRLLIYSTSNLASGVPARFSGSGSGTDFTLTISSLEPEDFAVYYCQQRSSYPFTFGPGTKLDIK

Reference: patent US20200054723A1 (ALLAKOS, published 2020)
